In the assay the target is T Cell Receptor Gamma Variable 9 (TRGV9) on human γδ T cells (human) (UniProt Q99603). Briefly: binding to γδ-enriched T cells, 1 h at 37 °C (panel γδ T-cell binding).

B1: VG9B2, chimera human IgG1 mAb (silent Fc) of mouse anti-human TCR Vγ9 clone B3 (antibody, V domains shown)
VH: QGQMQQSGAELVKPGASVKLSCKTSGFTFSSNYISWLKQKPGQSLEWIAWIHGGTGGIGYNQKFTGKAQLTVDTSSTTAYMQFSSLTTEDSAIYYCARRGYGAWFAYWGQGTLVTVSA
VL: DIQMTQSPASLSASVGETVTITCRASENIHNYLAWYQQKQGKSPQLLVYNAKTLADGVPSRFSGSGSGTQYSLKINSLQPEDFGNYYCQHFWSYPLTFGAGTKLELK
In the case of B1, the EC50 (in general, the concentration needed to bring the measured effect to its halfway point) was 0.56 nM.

Source of the values: patent publication US20210032338A1.
